Measured values taken from the supplement of paper PMC11246515.
± gives the standard deviation of the averaged measurements.

Assay: total protein half-life in vivo (active degradation + dilution); higher = more stable protein
[1] = E. coli NCM3722 delta-clpP delta-lon delta-hslV, growth: N-lim chemostat, doubling time 6 h
[2] = wild type E. coli NCM3722, growth: P-lim chemostat, doubling time 6 h
[3] = E. coli NCM3722 delta-smpB, growth: N-lim chemostat, doubling time 6 h
[4] = E. coli NCM3722 delta-clpP, growth: N-lim chemostat, doubling time 6 h
[5] = E. coli NCM3722 delta-hslV, growth: N-lim chemostat, doubling time 6 h
[6] = E. coli NCM3722 delta-lon, growth: N-lim chemostat, doubling time 6 h
[7] = wild type E. coli NCM3722, growth: C-lim chemostat, doubling time 3 h
[8] = wild type E. coli NCM3722, growth: C-lim chemostat, doubling time 6 h
[9] = wild type E. coli NCM3722, growth: C-lim chemostat, doubling time 12 h
[10] = wild type E. coli NCM3722, growth: N-lim chemostat, doubling time 6 h
[11] = wild type E. coli NCM3722, growth: N-lim chemostat, doubling time 12 h
[12] = wild type E. coli NCM3722, growth: P-lim chemostat, doubling time 12 h

Sequence | total protein half-life in vivo [1] [h] | total protein half-life in vivo [2] [h] | total protein half-life in vivo [3] [h] | total protein half-life in vivo [4] [h] | total protein half-life in vivo [5] [h] | total protein half-life in vivo [6] [h] | total protein half-life in vivo [7] [h] | total protein half-life in vivo [8] [h] | total protein half-life in vivo [9] [h] | total protein half-life in vivo [10] [h] | total protein half-life in vivo [11] [h] | total protein half-life in vivo [12] [h]
MSDKKKRSMAGLPWIAAMAFFMQALDATILNTALPAIAHSLNRSPLAMQSAIISYTLTVAMLIPVSGWLADRFGTRRIFTLAVSLFTLGSLACALSNSLPQLVVFRVIQGIGGAMMMPVARLALLRAYPRNELLPVLNFVAMPGLVGPILGPVLGGVLVTWATWHWIFLINIPIGIAGLLYARKHMPNFTTARRRFDITGFLLFGLSLVLFSSGIELFGEKIVASWIALTVIVTSIGLLLLYILHARRTPNPLISLDLFKTRTFSIGIVGNIATRLGTGCVPFLMPLMLQVGFGYQAFIAGCMMAPTALGSIIAKSMVTQVLRRLGYRHTLVGITVIIGLMIAQFSLQSPAMAIWMLILPLFILGMAMSTQFTAMNTITLADLTDDNASSGNSVLAVTQQLSISLGVAVSAAVLRVYEGMEGTTTVEQFHYTFITMGIITVASAAMFMLLKTTDGNNLIKRQRKSKPNRVPSESE | 6.64 | 5.92 | – | – | – | – | – | – | – | – | – | –
MNSKKLCCICVLFSLLAGCASESSIDEKKKKAQVTQSNINKNTPQQLTDKDLFGNETTLAVSEEDIQAALDGDEFRVPLNSPVILVQSGNRAPETIMQEEMRKYYTVSTFSGIPDRQKPLTCNKNKDKNENEDVASAENMNWMQALRFVAAKGHQKAIIVYQDMLQTGKYDSALKSTVWSDYKNDKLTDAISLRYLVRFTLVDVATGEWATWSPVNYEYKVLPPLPDKNEASTTDMTEQQIMQLKQKTYKAMVKDLVNRYQ | – | – | 2.44 | – | – | – | – | – | – | – | – | –
MTQLAIGKPAPLGAHYDGQGVNFTLFSAHAERVELCVFDANGQEHRYDLPGHSGDIWHGYLPDARPGLRYGYRVHGPWQPAEGHRFNPAKLLIDPCARQIDGEFKDNPLLHAGHNEPDYRDNAAIAPKCVVVVDHYDWEDDAPPRTPWGSTIIYEAHVKGLTYLHPEIPVEIRGTYKALGHPVMINYLKQLGITALELLPVAQFASEPRLQRMGLSNYWGYNPVAMFALHPAYACSPETALDEFRDAIKALHKAGIEVILDIVLNHSAELDLDGPLFSLRGIDNRSYYWIREDGDYHNWTGCGNTLNLSHPAVVDYASACLRYWVETCHVDGFRFDLAAVMGRTPEFRQDAPLFTAIQNCPVLSQVKLIAEPWDIAPGGYQVGNFPPLFAEWNDHFRDAARRFWLHYDLPLGAFAGRFAASSDVFKRNGRLPSAAINLVTAHDGFTLRDCVCFNHKHNEANGEENRDGTNNNYSNNHGKEGLGGSLDLVERRRDSIHALLTTLLLSQGTPMLLAGDEHGHSQHGNNNAYCQDNQLTWLDWSQASSGLTAFTAALIHLRKRIPALVENRWWEEGDGNVRWLNRYAQPLSTDEWQNGPKQLQILLSDRFLIAINATLEVTEIVLPAGEWHAIPPFAGEDNPVITAVWQGPAHGLCVFQR | 5.66 ± 0.38 | 6.42 ± 0.68 | 5.62 ± 0.72 | 5.35 ± 0.093 | 5.23 ± 0.074 | 6.01 ± 0.45 | 3.31 ± 0.7 | 5.47 ± 0.28 | 10.5 ± 0.48 | 5.46 ± 0.36 | 10.2 ± 0.7 | 11.6 ± 1.6
MKKALQVAMFSLFTVIGFNAQANEHHHETMSEAQPQVISATGVVKGIDLESKKITIHHDPIAAVNWPEMTMRFTITPQTKMSEIKTGDKVAFNFVQQGNLSLLQDIKVSQ | – | 4.39 ± 1 | 4.22 | 2.72 | 5.07 ± 1 | 5.07 ± 0.12 | 2.8 | 4.69 | 6.31 ± 4.1 | 4.84 ± 0.35 | 7.67 ± 1.3 | 7.41 ± 1.9
MNKILLQCDNLCKRYQEGSVQTDVLHNVSFSVGEGEMMAIVGSSGSGKSTLLHLLGGLDTPTSGDVIFNGQPMSKLSSAAKAELRNQKLGFIYQFHHLLPDFTALENVAMPLLIGKKKPAEINSRALEMLKAVGLDHRANHRPSELSGGERQRVAIARALVNNPRLVLADEPTGNLDARNADSIFQLLGELNRLQGTAFLVVTHDLQLAKRMSRQLEMRDGRLTAELSLMGAE | 6.92 | 5.48 ± 0.27 | – | 6.37 ± 0.67 | – | 6.32 ± 0.21 | 3.22 | 6.42 ± 0.012 | 10.8 ± 0.94 | 5.78 ± 0.77 | 13.1 ± 1.3 | –
MDVQQFFVVAVFFLIPIFCFREAWKGWRAGAIDKRVKNAPEPVYVWRAKNPGLFFAYMVAYIGFGILSIGMIVYLIFYR | 2.64 | 4.74 | 4.42 | – | 3.67 | – | – | 1.84 | – | – | – | 8.43
MNAVTVNDDGLVLRLYIQPKASRDSIVGLHGDEVKVAITAPPVDGQANSHLVKFLGKQFRVAKSQVVIEKGELGRHKQIKIINPQQIPPEIAALIN | 5.38 ± 0.38 | 4.68 ± 0.4 | 4.22 | 4 ± 0.27 | 4.49 | 5.14 | 2.88 ± 0.76 | 5.35 | 8.02 | 3.58 | 6.29 ± 0.45 | 8.89 ± 0.44
MRIRYGWELALAALLVIEIVAFGAINPRMLDLNMLLFSTSDFICIGIVALPLTMVIVSGGIDISFGSTIGLCAIALGVLFQSGVPMPLAILLTLLLGALCGLINAGLIIYTKVNPLVITLGTLYLFAGSALLLSGMAGATGYEGIGGFPMAFTDFANLDVLGLPVPLIIFLICLLVFWLWLHKTHAGRNVFLIGQSPRVALYSAIPVNRTLCALYAMTGLASAVAAVLLVSYFGSARSDLGASFLMPAITAVVLGGANIYGGSGSIIGTAIAVLLVGYLQQGLQMAGVPNQVSSALSGALLIVVVVGRSVSLHRQQIKEWLARRANNPLP [P0AFS1] | – | – | – | – | – | – | – | 6.11 | 13.4 | – | – | –
